This note sets out measurements from article PMC12051786, “Photoisomerization of Azobenzene‐Extended Charybdotoxin for the Optical Control of Kv1.2 Potassium Channel Activity” (Angewandte Chemie (International Ed. in English), 2025).

The nature of data set [1]: Thermal stability of the cis isomer in the dark. The settings on record: Figure S3.
Data set [2] can be described thus: Photo-isomerization kinetics (trans/cis) followed by absorbance under illumination. The class given is physicochemical. To be noted: 9.5 mW cm−2, 100% DMSO. From the text: Next, we evaluated for all monomers and dimers the trans‐cis isomerization reactions under various wavelengths of illumination. Illuminating the ChTx‐Ah^14‐Az1 monomer at λ = 365 nm at 9.5 mW cm^−2, to favor the cis configuration, yielded a significant time‐dependent change in the absorbance properties of the peptide, characterized by a decrease of the absorbance band maximum centered at 340 nm (Figure 4a).

Data set [3] has as its target mouse Kv1.2 channel (mouse) (UniProt P63141).
For data set [4] the target is unchanged. This is another data set of the same source.

Sequence of mouse Kv1.2 channel (mouse) (P63141 whole entry): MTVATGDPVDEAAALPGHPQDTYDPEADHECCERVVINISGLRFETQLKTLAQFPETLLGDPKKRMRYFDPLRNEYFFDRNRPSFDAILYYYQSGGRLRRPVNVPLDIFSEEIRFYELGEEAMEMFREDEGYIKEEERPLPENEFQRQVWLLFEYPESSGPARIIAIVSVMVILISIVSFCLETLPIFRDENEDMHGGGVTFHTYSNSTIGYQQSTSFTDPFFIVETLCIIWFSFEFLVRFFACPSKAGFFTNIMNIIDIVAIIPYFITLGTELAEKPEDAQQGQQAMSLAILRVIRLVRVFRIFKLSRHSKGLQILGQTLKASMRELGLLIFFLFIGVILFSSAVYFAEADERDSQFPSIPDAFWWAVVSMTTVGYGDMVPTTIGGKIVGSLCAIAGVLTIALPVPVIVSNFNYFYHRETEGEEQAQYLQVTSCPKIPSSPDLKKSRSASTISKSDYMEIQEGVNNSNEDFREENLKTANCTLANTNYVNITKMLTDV
Sequence of charybdotoxin (P13487 23-59): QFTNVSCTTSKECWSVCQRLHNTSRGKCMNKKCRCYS
Sequence of ChTx‐Ah^9 (P13487 whole entry, looked up): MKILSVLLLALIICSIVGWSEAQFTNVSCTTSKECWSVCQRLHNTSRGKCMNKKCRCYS
Sequence of ChTx‐Ah^12 (P13487 whole entry, looked up): as above

In the case of `C#CCNC(=O)c1ccc(/N=N/c2ccc(C(=O)NCC#C)cc2)cc1` [Az1, (E)‐4,4′‐(diazene‐1,2‐diyl)bis(N‐(prop‐2‐yn‐1‐yl)benzamide)], the “Thermal stability of the cis isomer” value in data set [1] is reported as “remarkably stable”. The “Time at which formation of the cis isomer saturates” value in data set [2] (irradiation at 340 nm) is 300 s. The “Time for recovery of trans-enriched compound on reverse-switching” value in data set [2] (irradiation at 435 nm) is on record as “≈ 60 s”.

Regarding “ChTx‐Ah^9 (from UniProt P13487 23-59) (peptide)”, the IC50 of inhibition of K+ current, L929 cells stably overexpressing mouse Kv1.2, automated patch-clamp in data set [3] was determined as 6.3 nM.

Take “ChTx‐Ah^12 (from UniProt P13487 23-59) (peptide)”: in data set [3], the IC50 of inhibition of K+ current, L929 cells stably overexpressing mouse Kv1.2, automated patch-clamp was found to be 1.2 nM.

In the case of “ChTx‐Ah^14 (from UniProt P13487 23-59) (peptide)”, the percent block of Kv1.2 current at 10 nM peptide, patch-clamp in data set [4] was found to be 52%. Besides, in data set [3], the IC50 of inhibition of K+ current, L929 cells stably overexpressing mouse Kv1.2, automated patch-clamp was 9.8 nM.

For “ChTx‐Ah^19 (from UniProt P13487 23-59) (peptide)”, the IC50 of inhibition of K+ current, L929 cells stably overexpressing mouse Kv1.2, automated patch-clamp in data set [3] worked out at 11.5 nM.

As for “charybdotoxin (from UniProt P13487 23-59) (peptide)”, the percent block of Kv1.2 current at 10 nM peptide, patch-clamp in data set [4] is 62.2%. Further, the IC50 of inhibition of K+ current, L929 cells stably overexpressing mouse Kv1.2, automated patch-clamp in data set [3] is 5 nM.
